The test addresses human GPC3 on cells (human) (UniProt P51654). Kind of test: cell-based or functional assay.

Experimental findings from patent US20240092919A1 are described below.

B1: A022600105 (protein)
chain: DVQLVESGGGVVQPGGSLRLSCVASGYVHKINFYGWYRQAPGKEREKVAHISIGDQTDYADSAKGRFTISRDESKNTVYLQMNSLRPEDTALYYCRALSRIWPYDYWGQGTLVTVSSGGGGSGGGGSGGGGSGGGGSEVQLVESGGGLVQPGGSLRLSCVASGFTFSSFAMTWVRRPPGKGLEWVATITNGGVTSYRDSVKGRFTISRDNAKNTLYLEMTSLNPEDTAVYICANARRTGPRAPTDIGSYRGQGTLVTVSSGGGGSGGGGSGGGGSGGGGSGGGGSGGGGSGGGGSEVQLVESGGGVVQPGGSLRLSCAASGFTFRSFGMSWVRQAPGKGPEWVSSISGSGSDTLYADSVKGRFTISRDNSKNTLYLQMNSLRPEDTALYYCTIGGSLSRSSQGTLVTVSSA
B1: the IC50 (M), Incucyte human TDC HepG2-Nuclight green assay, E:T 15:1, 72 h was 2.14e-09 M and the Max % Killing, Incucyte human TDC HepG2-Nuclight green assay, 72 h is 85%.

B2: A022600134 (protein)
chain: DVQLVESGGGVVQPGGSLRLSCVASGYVHKINFYGWYRQAPGKEREKVAHISIGDQTDYADSAKGRFTISRDESKNTVYLQMNSLRPEDTALYYCRALSRIWPYDYWGQGTLVTVSSGGGGSEVQLVESGGGLVQPGGSLRLSCVASGSIFRSVFSSSTMEWYRQPPGKKRELVARIAPGDGTNYGALYADSVKGRFTISRDDAKKTVDLQMNSLKPEDTGVYFCASGVAWGQGTLVTVSSGGGGSGGGGSGGGGSGGGGSEVQLVESGGGLVQPGGSLRLSCVASGFTFSSFAMTWVRRPPGKGLEWVATITNGGVTSYRDSVKGRFTISRDNAKNTLYLEMTSLNPEDTAVYICANARRTGPRAPTDIGSYRGQGTLVTVSSGGGGSGGGGSGGGGSGGGGSGGGGSGGGGSGGGGSEVQLVESGGGVVQPGGSLRLSCAASGFTFRSFGMSWVRQAPGKGPEWVSSISGSGSDTLYADSVKGRFTISRDNSKNTLYLQMNSLRPEDTALYYCTIGGSLSRSSQGTLVTVSSA
As for B2, the IC50 (M), Incucyte human TDC HepG2-Nuclight green assay, E:T 15:1 (Step 2) worked out at 5.28e-10 M and the Max % Killing, Incucyte human TDC HepG2-Nuclight green assay (Step 2) was determined as 92%.

B3: A022600104 (protein)
chain: DVQLVESGGGVVQPGGSLRLSCVASGYVHKINFYGWYRQAPGKEREKVAHISIGDQTDYADSAKGRFTISRDESKNTVYLQMNSLRPEDTALYYCRALSRIWPYDYWGQGTLVTVSSGGGGSGGGSEVQLVESGGGLVQPGGSLRLSCVASGFTFSSFAMTWVRRPPGKGLEWVATITNGGVTSYRDSVKGRFTISRDNAKNTLYLEMTSLNPEDTAVYICANARRTGPRAPTDIGSYRGQGTLVTVSSGGGGSGGGGSGGGGSGGGGSGGGGSGGGGSGGGGSEVQLVESGGGVVQPGGSLRLSCAASGFTFRSFGMSWVRQAPGKGPEWVSSISGSGSDTLYADSVKGRFTISRDNSKNTLYLQMNSLRPEDTALYYCTIGGSLSRSSQGTLVTVSSA
For the molecule B3, the IC50 (M), Incucyte human TDC HepG2-Nuclight green assay, E:T 15:1, 72 h was found to be 2.13e-09 M and the Max % Killing, Incucyte human TDC HepG2-Nuclight green assay, 72 h worked out at 90%.

B4: A022600122 (protein)
chain: DVQLVESGGGVVQPGGSLRLSCVASGYVHKINFYGWYRQAPGKEREKVAHISIGDQTDYADSAKGRFTISRDESKNTVYLQMNSLRPEDTALYYCRALSRIWPYDYWGQGTLVTVSSGGGGSEVQLVESGGGLVQPGGSLRLSCVASGFTFSSFAMTWVRRPPGKGLEWVATITNGGVTSYRDSVKGRFTISRDNAKNTLYLEMTSLNPEDTAVYICANARRTGPRAPTDIGSYRGQGTLVTVSSGGGGSGGGGSGGGGSGGGGSGGGGSGGGGSGGGGSEVQLVESGGGLVQPGGSLRLSCVASGSIFRSVFSSSTMEWYRQPPGKKRELVARIAPGDGTNYGALYADSVKGRFTISRDDAKKTVDLQMNSLKPEDTGVYFCASGVAWGQGTLVTVSSGGGGSGGGGSGGGGSGGGGSGGGGSGGGGSGGGGSEVQLVESGGGVVQPGGSLRLSCAASGFTFRSFGMSWVRQAPGKGPEWVSSISGSGSDTLYADSVKGRFTISRDNSKNTLYLQMNSLRPEDTALYYCTIGGSLSRSSQGTLVTVSSA
The molecule B4 yielded a HepG2 on Incucyte IC50 (M), human TDC, E:T 15:1, 60 h of 5.3e-10 M; a HepG2 on Incucyte Max % killing, 60 h of 93%; a Huh7 on xCELLigence IC50 (M), human TDC, E:T 15:1, 60 h of 2.61e-10 M; a Huh7 on xCELLigence Max % killing, 60 h of 101%. The same molecule registered an IC50 (M), Incucyte human TDC HepG2-Nuclight green assay, E:T 15:1 (Step 2) of 4.45e-10 M and a Max % Killing, Incucyte human TDC HepG2-Nuclight green assay (Step 2) of 92%.

B5: A022600133 (protein)
chain: DVQLVESGGGVVQPGGSLRLSCVASGYVHKINFYGWYRQAPGKEREKVAHISIGDQTDYADSAKGRFTISRDESKNTVYLQMNSLRPEDTALYYCRALSRIWPYDYWGQGTLVTVSSGGGGSEVQLVESGGGLVQPGGSLRLSCVASGSIFRSVFSSSTMEWYRQPPGKKRELVARIAPGDGTNYGALYADSVKGRFTISRDDAKKTVDLQMNSLKPEDTGVYFCASGVAWGQGTLVTVSSGGGGSGGGGSGGGGSGGGGSGGGGSGGGGSGGGGSEVQLVESGGGLVQPGGSLRLSCVASGFTFSSFAMTWVRRPPGKGLEWVATITNGGVTSYRDSVKGRFTISRDNAKNTLYLEMTSLNPEDTAVYICANARRTGPRAPTDIGSYRGQGTLVTVSSGGGGSGGGGSGGGGSGGGGSGGGGSGGGGSGGGGSEVQLVESGGGVVQPGGSLRLSCAASGFTFRSFGMSWVRQAPGKGPEWVSSISGSGSDTLYADSVKGRFTISRDNSKNTLYLQMNSLRPEDTALYYCTIGGSLSRSSQGTLVTVSSA
B5 gave an IC50 (M), Incucyte human TDC HepG2-Nuclight green assay, E:T 15:1 (Step 2) of 4.08e-10 M and a Max % Killing, Incucyte human TDC HepG2-Nuclight green assay (Step 2) of 92%.

B6: A022600102 (protein)
chain: DVQLVESGGGVVQPGGSLRLSCVASGYVHKINFYGWYRQAPGKEREKVAHISIGDQTDYADSAKGRFTISRDESKNTVYLQMNSLRPEDTALYYCRALSRIWPYDYWGQGTLVTVSSAAAEVQLVESGGGLVQPGGSLRLSCVASGFTFSSFAMTWVRRPPGKGLEWVATITNGGVTSYRDSVKGRFTISRDNAKNTLYLEMTSLNPEDTAVYICANARRTGPRAPTDIGSYRGQGTLVTVSSGGGGSGGGGSGGGGSGGGGSGGGGSGGGGSGGGGSEVQLVESGGGVVQPGGSLRLSCAASGFTFRSFGMSWVRQAPGKGPEWVSSISGSGSDTLYADSVKGRFTISRDNSKNTLYLQMNSLRPEDTALYYCTIGGSLSRSSQGTLVTVSSA
For B6, the IC50 (M), Incucyte human TDC HepG2-Nuclight green assay, E:T 15:1, 72 h turned out to be 1.72e-09 M and the Max % Killing, Incucyte human TDC HepG2-Nuclight green assay, 72 h is 94%.

B7: A022600132 (protein)
chain: DVQLVESGGGVVQPGGSLRLSCVASGYVHKINFYGWYRQAPGKEREKVAHISIGDQTDYADSAKGRFTISRDESKNTVYLQMNSLRPEDTALYYCRALSRIWPYDYWGQGTLVTVSSGGGGSEVQLVESGGGLVQPGGSLRLSCVASGFTFSSFAMTWVRRPPGKGLEWVATITNGGVTSYRDSVKGRFTISRDNAKNTLYLEMTSLNPEDTAVYICANARRTGPRAPTDIGSYRGQGTLVTVSSGGGGSGGGSEVQLVESGGGLVQPGGSLRLSCVASGSIFRSVFSSSTMEWYRQPPGKKRELVARIAPGDGTNYGALYADSVKGRFTISRDDAKKTVDLQMNSLKPEDTGVYFCASGVAWGQGTLVTVSSGGGGSGGGGSGGGGSGGGGSGGGGSGGGGSGGGGSEVQLVESGGGVVQPGGSLRLSCAASGFTFRSFGMSWVRQAPGKGPEWVSSISGSGSDTLYADSVKGRFTISRDNSKNTLYLQMNSLRPEDTALYYCTIGGSLSRSSQGTLVTVSSA
Molecule B7 returned a HepG2 on Incucyte IC50 (M), human TDC, E:T 15:1, 60 h of 6.83e-10 M; a HepG2 on Incucyte Max % killing, 60 h of 83%; a Huh7 on xCELLigence IC50 (M), human TDC, E:T 15:1, 60 h of 2.9e-10 M; a Huh7 on xCELLigence Max % killing, 60 h of 95%. The molecule also had an IC50 (M), Incucyte human TDC HepG2-Nuclight green assay, E:T 15:1 (Step 2) of 7.02e-10 M and a Max % Killing, Incucyte human TDC HepG2-Nuclight green assay (Step 2) of 91%.

B8: A022600096 (protein)
chain: DVQLVESGGGLVQPGGSLRLSCVASGYVHKINFYGWYRQAPGKEREKVAHISIGDQTDYADSAKGRFTISRDESKNTVYLQMNSLRPEDTALYYCRALSRIWPYDYWGQGTLVTVSSGGGGSGGGGSGGGGSGGGGSGGGGSGGGGSGGGGSEVQLVESGGGLVQPGGSLRLSCVASGFTFSSFAMTWVRRPPGKGLEWVATITNGGVTSYRDSVKGRFTISRDNAKNTLYLEMTSLNPEDTAVYICANARRTGPRAPTDIGSYRGQGTLVTVSSGGGGSGGGGSGGGGSGGGGSGGGGSGGGGSGGGGSEVQLVESGGGVVQPGGSLRLSCAASGFTFRSFGMSWVRQAPGKGPEWVSSISGSGSDTLYADSVKGRFTISRDNSKNTLYLQMNSLRPEDTALYYCTIGGSLSRSSQGTLVTVSSA
For the molecule B8, the IC50 (M), Incucyte human TDC HepG2-Nuclight green assay, E:T 15:1, 72 h was determined as 1.4e-09 M and the Max % Killing, Incucyte human TDC HepG2-Nuclight green assay, 72 h was found to be 72%.

B9: A022600131 (protein)
chain: DVQLVESGGGVVQPGGSLRLSCVASGYVHKINFYGWYRQAPGKEREKVAHISIGDQTDYADSAKGRFTISRDESKNTVYLQMNSLRPEDTALYYCRALSRIWPYDYWGQGTLVTVSSGGGGSEVQLVESGGGLVQPGGSLRLSCVASGFTFSSFAMTWVRRPPGKGLEWVATITNGGVTSYRDSVKGRFTISRDNAKNTLYLEMTSLNPEDTAVYICANARRTGPRAPTDIGSYRGQGTLVTVSSGGGGSGGGGSGGGGSGGGGSEVQLVESGGGLVQPGGSLRLSCVASGSIFRSVFSSSTMEWYRQPPGKKRELVARIAPGDGTNYGALYADSVKGRFTISRDDAKKTVDLQMNSLKPEDTGVYFCASGVAWGQGTLVTVSSGGGGSGGGGSGGGGSGGGGSGGGGSGGGGSGGGGSEVQLVESGGGVVQPGGSLRLSCAASGFTFRSFGMSWVRQAPGKGPEWVSSISGSGSDTLYADSVKGRFTISRDNSKNTLYLQMNSLRPEDTALYYCTIGGSLSRSSQGTLVTVSSA
On to B9, for which the IC50 (M), Incucyte human TDC HepG2-Nuclight green assay, E:T 15:1 (Step 2) worked out at 4.44e-10 M and the Max % Killing, Incucyte human TDC HepG2-Nuclight green assay (Step 2) was determined as 94%.

B10: A022600103 (protein)
chain: DVQLVESGGGVVQPGGSLRLSCVASGYVHKINFYGWYRQAPGKEREKVAHISIGDQTDYADSAKGRFTISRDESKNTVYLQMNSLRPEDTALYYCRALSRIWPYDYWGQGTLVTVSSGGGGSEVQLVESGGGLVQPGGSLRLSCVASGFTFSSFAMTWVRRPPGKGLEWVATITNGGVTSYRDSVKGRFTISRDNAKNTLYLEMTSLNPEDTAVYICANARRTGPRAPTDIGSYRGQGTLVTVSSGGGGSGGGGSGGGGSGGGGSGGGGSGGGGSGGGGSEVQLVESGGGVVQPGGSLRLSCAASGFTFRSFGMSWVRQAPGKGPEWVSSISGSGSDTLYADSVKGRFTISRDNSKNTLYLQMNSLRPEDTALYYCTIGGSLSRSSQGTLVTVSSA
B10: the HepG2 on Incucyte IC50 (M), human TDC, E:T 15:1, 60 h is 1.23e-09 M; the HepG2 on Incucyte Max % killing, 60 h amounted to 96%; the Huh7 on xCELLigence IC50 (M), human TDC, E:T 15:1, 60 h came out at 7.11e-09 M; the Huh7 on xCELLigence Max % killing, 60 h came to 71%. The same molecule had an IC50 (M), Incucyte human TDC HepG2-Nuclight green assay, E:T 15:1 (Step 2) of 5.43e-10 M; an IC50 (M), Incucyte human TDC HepG2-Nuclight green assay, E:T 15:1, 72 h of 2.04e-09 M; a Max % Killing, Incucyte human TDC HepG2-Nuclight green assay (Step 2) of 90%; a Max % Killing, Incucyte human TDC HepG2-Nuclight green assay, 72 h of 92%.
